Test results reported in patent US20200024322A1 (Eli Lilly, published 2020).
Substitutions are numbered along the chain they refer to. Numbered stars: 1 amine (or outer) side, 2 acyl side, 3 side chain; on linkers, the order of the positions; unused ones are H or OH. Square brackets hold non-standard residues; d marks the D form. Side chains are listed from the residue outwards. Ends that are not written are not given here. * marks the point of attachment. C18 diacid = O=C(O)CCCCCCCCCCCCCCCCC(=O)*; γGlu = O=C(O)[C@H](CCC(=O)[*:2])N[*:1]; AEEA = NCCOCCOCC(=O)O; Aib = CC(C)(N)C(=O)O

T1: human GIP receptor (human, UniProt P48546 22-466)
T1 construct: whole, on cells; also called hGIPR; hGIP-R
T1 sequence (looked up): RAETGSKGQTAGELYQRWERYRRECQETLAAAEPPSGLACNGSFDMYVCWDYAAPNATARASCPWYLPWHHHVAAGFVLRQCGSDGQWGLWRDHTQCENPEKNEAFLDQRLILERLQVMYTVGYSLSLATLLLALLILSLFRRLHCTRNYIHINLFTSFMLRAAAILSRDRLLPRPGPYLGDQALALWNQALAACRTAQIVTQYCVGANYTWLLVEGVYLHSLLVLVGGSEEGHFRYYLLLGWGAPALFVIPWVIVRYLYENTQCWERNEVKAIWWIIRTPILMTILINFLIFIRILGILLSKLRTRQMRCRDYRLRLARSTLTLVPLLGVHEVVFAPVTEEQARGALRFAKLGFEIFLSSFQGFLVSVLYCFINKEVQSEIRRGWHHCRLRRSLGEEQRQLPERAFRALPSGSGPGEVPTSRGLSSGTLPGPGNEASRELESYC

B1: Example 294 (peptide)
peptide: Y[Aib]EGTFTSDYSILLDKK([AEEA-AEEA-γGlu-C18 diacid])AQQAFIEYLIEGG-NH2
modifications: N-terminus assumed
SMILES: CC[C@H](C)[C@H](NC(=O)[C@H](CC(C)C)NC(=O)[C@H](Cc1ccc(O)cc1)NC(=O)[C@H](CCC(=O)O)NC(=O)[C@@H](NC(=O)[C@H](Cc1ccccc1)NC(=O)[C@H](C)NC(=O)[C@H](CCC(N)=O)NC(=O)[C@H](CCC(N)=O)NC(=O)[C@H](C)NC(=O)[C@H](CCCCNC(=O)COCCOCCNC(=O)COCCOCCNC(=O)CC[C@H](NC(=O)CCCCCCCCCCCCCCCCC(=O)O)C(=O)O)NC(=O)[C@H](CCCCN)NC(=O)[C@H](CC(=O)O)NC(=O)[C@H](CC(C)C)NC(=O)[C@H](CC(C)C)NC(=O)[C@@H](NC(=O)[C@H](CO)NC(=O)[C@H](Cc1ccc(O)cc1)NC(=O)[C@H](CC(=O)O)NC(=O)[C@H](CO)NC(=O)[C@@H](NC(=O)[C@H](Cc1ccccc1)NC(=O)[C@@H](NC(=O)CNC(=O)[C@H](CCC(=O)O)NC(=O)C(C)(C)NC(=O)[C@@H](N)Cc1ccc(O)cc1)[C@@H](C)O)[C@@H](C)O)[C@@H](C)CC)[C@@H](C)CC)C(=O)N[C@@H](CCC(=O)O)C(=O)NCC(=O)NCC(N)=O
B2: Example 300 (peptide)
peptide: YXEGTFTSDYSIXLDKKAQXAFIEYLIEGGPSSG
modifications: Aib2; αMeL13; K17((2-[2-(2-Amino-ethoxy)-ethoxy]-acetyl)2-(γ-Glu)-CO-(CH2)16-CO2H); Aib20; C-terminal NH2
B3: Example 302 (peptide)
peptide: B2 peptide with F6X, X13L
modifications: Aib2; αMeF(2F)6; K17((2-[2-(2-Amino-ethoxy)-ethoxy]-acetyl)2-(γ-Glu)-CO-(CH2)16-CO2H); Aib20; C-terminal NH2
B4: Example 301 (peptide)
peptide: B2 peptide with F6X, X13L
modifications: Aib2; αMeF6; K17((2-[2-(2-Amino-ethoxy)-ethoxy]-acetyl)2-(γ-Glu)-CO-(CH2)16-CO2H); Aib20; C-terminal NH2
notes: also called GG-650
B5: Example 310 (peptide)
peptide: B2 peptide with F6X, X13L, A21E, E28A
modifications: Aib2; αMeF6; K17((2-[2-(2-Amino-ethoxy)-ethoxy]-acetyl)2-(γ-Glu)-CO-(CH2)16-CO2H); Aib20; C-terminal NH2
B6: Example 305 (peptide)
peptide: B2 peptide with E28A
modifications: Aib2; αMeL13; K17((2-[2-(2-Amino-ethoxy)-ethoxy]-acetyl)2-(γ-Glu)-CO-(CH2)16-CO2H); Aib20; C-terminal NH2
B7: Example 311 (peptide)
peptide: B2 peptide with F6X, X13L, K16E
modifications: Aib2; αMeF(2F)6; K17((2-[2-(2-Amino-ethoxy)-ethoxy]-acetyl)2-(γ-Glu)-CO-(CH2)16-CO2H); Aib20; C-terminal NH2
B8: Example 307 (peptide)
peptide: B2 peptide with F6X, X13L, K16E
modifications: Aib2; αMeF6; K17((2-[2-(2-Amino-ethoxy)-ethoxy]-acetyl)2-(γ-Glu)-CO-(CH2)16-CO2H); Aib20; C-terminal NH2
B9: Example 313 (peptide)
peptide: B2 peptide with F6X, X13L, E28A
modifications: Aib2; αMeF(2F)6; K17((2-[2-(2-Amino-ethoxy)-ethoxy]-acetyl)2-(γ-Glu)-CO-(CH2)16-CO2H); Aib20; C-terminal NH2
B10: Example 309 (peptide)
peptide: B2 peptide with F6X, X13L, E28A
modifications: Aib2; αMeF6; K17((2-[2-(2-Amino-ethoxy)-ethoxy]-acetyl)2-(γ-Glu)-CO-(CH2)16-CO2H); Aib20; C-terminal NH2
B11: Example 308 (peptide)
peptide: B2 peptide with F6X, X13L, A21E
modifications: Aib2; αMeF6; K17((2-[2-(2-Amino-ethoxy)-ethoxy]-acetyl)2-(γ-Glu)-CO-(CH2)16-CO2H); Aib20; C-terminal NH2
B12: Example 303 (peptide)
peptide: B2 peptide with K16E
modifications: Aib2; αMeL13; K17((2-[2-(2-Amino-ethoxy)-ethoxy]-acetyl)2-(γ-Glu)-CO-(CH2)16-CO2H); Aib20; C-terminal NH2
B13: Example 314 (peptide)
peptide: B2 peptide with F6X, X13L, A21E, E28A
modifications: Aib2; αMeF(2F)6; K17((2-[2-(2-Amino-ethoxy)-ethoxy]-acetyl)2-(γ-Glu)-CO-(CH2)16-CO2H); Aib20; C-terminal NH2
B14: Example 312 (peptide)
peptide: B2 peptide with F6X, X13L, A21E
modifications: Aib2; αMeF(2F)6; K17((2-[2-(2-Amino-ethoxy)-ethoxy]-acetyl)2-(γ-Glu)-CO-(CH2)16-CO2H); Aib20; C-terminal NH2
B15: Example 325 (peptide)
peptide: YXEGTXTSDYSILLDKKAQXAFIEYLIEGGPSSGAPPPS
modifications: Aib2; αMeF(2F)6; K17((2-[2-(2-Amino-ethoxy)-ethoxy]-acetyl)2-(γ-Glu)-CO-(CH2)18-CO2H); Aib20; C-terminal NH2

target: T2, human glucagon receptor (human, UniProt P47871 26-477); assay: [125I]-Gcg competition SPA, hGcgR membranes
T2 construct: whole, on cells; also called hGcgR; GcgR
T2 sequence (P47871 26-477): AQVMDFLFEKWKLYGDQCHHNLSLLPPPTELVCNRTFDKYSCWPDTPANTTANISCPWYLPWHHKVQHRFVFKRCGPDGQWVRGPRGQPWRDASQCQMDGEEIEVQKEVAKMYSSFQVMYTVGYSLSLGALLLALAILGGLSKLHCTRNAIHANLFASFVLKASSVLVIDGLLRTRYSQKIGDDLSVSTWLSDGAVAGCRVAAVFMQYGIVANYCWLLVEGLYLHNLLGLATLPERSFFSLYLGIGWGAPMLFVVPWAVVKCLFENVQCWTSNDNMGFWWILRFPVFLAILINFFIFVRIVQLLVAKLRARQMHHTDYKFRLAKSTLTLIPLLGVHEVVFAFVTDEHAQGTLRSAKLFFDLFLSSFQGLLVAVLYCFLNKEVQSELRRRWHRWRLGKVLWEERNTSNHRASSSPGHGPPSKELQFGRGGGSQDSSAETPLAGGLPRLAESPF

First: B1
Second: B2
The Ki of the first is 2.5-fold higher: 629 nM for the first, 251 nM for the second.

Going from B3 to B4, the Ki rises from 18.5 nM to 44.4 nM (2.4-fold).

Compared with B5, B6 is 2-fold higher in Ki: 174 nM for the first, 352 nM for the second.

B7 and B8 are within 1.5-fold of each other in Ki: 115 nM for the first, 117 nM for the second.

Going from B9 to B10, the Ki rises from 27.6 nM to 64.1 nM (2.3-fold). The first binds more tightly here.

First: B11
Second: B12
The Ki of the first is 5.3-fold lower: 94.2 nM for the first, 502 nM for the second. The first binds more tightly here.

B13 and B14 are within 1.5-fold of each other in Ki: 116 nM for the first, 106 nM for the second.

Binder B15 has a Ki of 13 nM.

target: T3, human GLP-1 receptor (human, UniProt P43220 24-463); assay: [125I]-GLP-1 competition SPA, hGLP-1R membranes
T3 construct: whole, on cells; also called hGLP-1R; hGLP1R
Procedure, shortened: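 Competition binding in 25 mM HEPES pH 7.4, 2.5 mM CaCl₂, 1 mM MgCl₂, 0.1% bacitracin, 0.003% TWEEN-20, EDTA-free protease inhibitors. IC₅₀ from four-parameter nonlinear fit; Kᵢ given as geometric mean ± SEM, n = independent replicates on different days.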

B1 and B2 are within 1.5-fold of each other in Ki: 2.92 nM for the first, 2.13 nM for the second.

B3 and B4 are within 1.5-fold of each other in Ki: 0.617 nM for the first, 0.875 nM for the second.

Compared with B5, B6 is 2-fold lower in Ki: 1.7 nM for the first, 0.83 nM for the second.

Compared with B7, B8 is 2.3-fold lower in Ki: 11.5 nM for the first, 5.1 nM for the second.

B9 and B10 are within 1.5-fold of each other in Ki: 0.815 nM for the first, 1.04 nM for the second.

Going from B11 to B12, the Ki rises from 1.01 nM to 3.69 nM (3.7-fold).

First: B13
Second: B14
The Ki of the first is 2.3-fold lower: 0.717 nM for the first, 1.63 nM for the second.

B15 was tested, and the Ki was 0.475 nM.

target: T1, human GIP receptor; assay: [125I]-GIP competition SPA, hGIPR membranes

First: B1
Second: B2
The Ki of the first is 4.1-fold higher: 0.205 nM for the first, 0.0504 nM for the second.

B3 and B4 are within 1.5-fold of each other in Ki: 0.0289 nM for the first, 0.0273 nM for the second.

B5 and B6 are within 1.5-fold of each other in Ki: 0.0315 nM for the first, 0.025 nM for the second.

First: B7
Second: B8
The Ki of the first is 1.6-fold lower: 0.0497 nM for the first, 0.0773 nM for the second. The first binds more tightly here.

B9 and B10 are within 1.5-fold of each other in Ki: 0.0261 nM for the first, 0.0264 nM for the second.

Compared with B11, B12 is 2-fold higher in Ki: 0.0288 nM for the first, 0.058 nM for the second. The first binds more tightly here.

B13 and B14 are within 1.5-fold of each other in Ki: 0.027 nM for the first, 0.0348 nM for the second.

B15 gave a Ki of 0.0209 nM.
